{
  "source": "paper PMC3956926",
  "about": "“Acetate Kinase Isozymes Confer Robustness in Acetate Metabolism” (PLoS ONE, 2014)",
  "experiment_in_all_cases": "purified protein",
  "key": {"[1]": {"substrate": "CC(=O)O", "details": "OAc to Ac-P, varying ATP, 4.2 mM MgCl2, 100 mM HEPES, 400 mM potassium glutamate, pH 7.5, apparent Km"}, "[2]": {"substrate": "CC(=O)OP(=O)(O)O", "format": "biochemical, Lactococcus cremoris", "details": "Ac-P to OAc, varying ADP, 5 mM MgSO4, 100 mM HEPES, 400 mM potassium glutamate, pH 7.5"}, "[3]": {"substrate": "Nc1ncnc2c1ncn2[C@@H]1O[C@H](COP(=O)(O)OP(=O)(O)O)[C@@H](O)[C@H]1O", "format": "biochemical, Lactococcus cremoris", "details": "Ac-P to OAc, varying Ac-P, 5 mM MgSO4, 100 mM HEPES, 400 mM potassium glutamate, pH 7.5"}, "[4]": {"substrate": "Nc1ncnc2c1ncn2[C@@H]1O[C@H](COP(=O)(O)OP(=O)(O)OP(=O)(O)O)[C@@H](O)[C@H]1O", "format": "biochemical, Lactococcus cremoris", "details": "OAc to Ac-P, varying acetate, 4.2 mM MgCl2, 100 mM HEPES, 400 mM potassium glutamate, pH 7.5"}},
  "data": [
    {"protein": "AckA2 (Lactococcus cremoris subsp. cremoris MG1363) (protein, His-tagged (vector pQE30, N-terminal tag kept), from E. coli M15 pREP4 groESL, Ni-NTA; 84 kDa by gel filtration, monomer 43 kDa, homodimer; residue I331 in ATP site) MEKTLAVNAGSSSLKWQLYEMPEETVIAKGIFERIGLSGSISTTKFNNEEHVRKQEIVDHRQAVLLLMDELIHFQLIHEFREITGIGHRVVAGGEFFKDSTIITPEVLAEIKNLSTLAPLHNPANVLGIEAFQRLLPDALAVAVFDTAFHSTLPEKAYRYPIPTKYYEDYSIRKYGAHGTSHMYVAQEAAKVLGKPLEELKIITAHIGNGASITAIEGGKSVDTSMGFTPLAGVMMGTRAGEMDASVIPYMLESDPSLRNAQDVIDILNKESGVLGVSELSSDMRDLSEAVAKGNPKAILAYEMYVDRLKKFIAQYFGVLNGADALIFTAGVGENDTAVRTDVVNGLSWFGMEIDESKNVRGAFGIISKPESKVKVLVVPTNEELVIARDVEAAK", "values": [
      {"measurement": "Km", "setting": "[1]", "result": "1.87 (0.29) mM"},
      {"measurement": "kcat", "setting": "[1]", "result": 394, "unit": "s⁻¹"},
      {"measurement": "Km", "setting": "[2]", "result": "0.086 (0.02) mM"},
      {"measurement": "Km", "setting": "[3]", "result": "1.15 (0.12) mM"},
      {"measurement": "kcat", "setting": "[3]", "result": 282, "unit": "s⁻¹"},
      {"measurement": "Km", "setting": "[4]", "result": "0.21 (0.12) mM"},
      {"measurement": "kcat", "setting": "[4]", "result": 394, "unit": "s⁻¹"}
    ]},
    {"protein": "AckA1 (Lactococcus cremoris subsp. cremoris MG1363) (protein, His-tagged (vector pQE30, N-terminal tag kept), from E. coli M15 pREP4 groESL, Ni-NTA; 100 kDa by gel filtration, monomer 43 kDa, homodimer; residue V331 in ATP site) MTKTLAVNAGSSSMKWQMYEMPEEKVLAKGLIERIGLKDSIVTVKFGEEKEERVFDIPNHTEAVEVLLEDLKRLKIVEEFTEITGVGHRVVAGGEIFQKSTVVTPEVLQQVKDLSALAPLHNPANAAGIEAFLNLLPDATSVVVFDTAFHTTMPEKAFRYPLPKKYYTDYAVRKYGAHGTSHMYVSQEAAKLLGKPIEETKIITAHIGNGASITAVKGGESVDTSMGFTPLAGVMMGTRTGEMDPSVFPYLIENDSELKDAQDVVDMMNKESGLYGVSGISSDMRDIIAAKDTDADAKLAFEMYVDRIQKFIGQYLAVLNGADALVFTAGIGENSVPVREAILSGLTWFGIEVDPEKNVFGVEGEISKPSSRLKVFVIPTDEELVIARDVEALKK", "values": [
      {"measurement": "Km", "setting": "[1]", "result": "22.07 (1.05) mM"},
      {"measurement": "kcat", "setting": "[1]", "result": 3234, "unit": "s⁻¹"},
      {"measurement": "Km", "setting": "[2]", "result": "0.35 (0.02) mM"},
      {"measurement": "Km", "setting": "[3]", "result": "0.94 (0.09) mM"},
      {"measurement": "kcat", "setting": "[3]", "result": 1033, "unit": "s⁻¹"},
      {"measurement": "Km", "setting": "[4]", "result": "0.086 (0.0078) mM"},
      {"measurement": "kcat", "setting": "[4]", "result": 3234, "unit": "s⁻¹"}
    ]}
  ]
}
